Data as given in patent US7115260B2, “Interleukin-1β converting enzyme like apoptotic protease-6” (Human Genome Sciences, Inc., priority 1996, dated 2006).
Peptide text beside a SMILES is read from it. * marks the point of attachment. Cbz = O=C(OCc1ccccc1)*; CH2F = FC*

Columns and labels:
ICE LAP-6 = molecular target: T1, ICE LAP-6 (Homo sapiens, UniProt P55211, A28V/A96G/Q221R); assay: Inhibition of ICE LAP-6 induced apoptosis in transfected MCF7 cells; assay type: cell-based; conditions: MCF7 cells transfected with ICE LAP-6-flag
T1 construct: transiently transfected with an expression vector encoding the full-length ICE LAP-6 protein (ICE LAP-6-flag); expressed in transfected cells; host or cells: MCF7 breast carcinoma cells, pcDNA3 vector
T1 sequence (P55211 1-416 A28V/A96G/Q221R): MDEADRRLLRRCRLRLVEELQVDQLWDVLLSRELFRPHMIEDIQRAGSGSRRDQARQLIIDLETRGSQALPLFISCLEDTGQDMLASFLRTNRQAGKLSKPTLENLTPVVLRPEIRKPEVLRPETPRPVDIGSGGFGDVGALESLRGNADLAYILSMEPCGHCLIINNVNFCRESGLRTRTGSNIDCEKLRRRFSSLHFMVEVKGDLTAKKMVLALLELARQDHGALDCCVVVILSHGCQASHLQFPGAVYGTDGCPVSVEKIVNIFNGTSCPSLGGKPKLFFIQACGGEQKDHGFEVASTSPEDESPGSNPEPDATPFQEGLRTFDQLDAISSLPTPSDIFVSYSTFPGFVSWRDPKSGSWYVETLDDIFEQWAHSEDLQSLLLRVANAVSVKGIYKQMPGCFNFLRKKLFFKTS
Protocol: (§1) MCF7 breast carcinoma cells were transiently transfected as described previously (Chinnaiyan, A. M., et al (1995) Cell 81, 505–512). Briefly, 2.5×10^5 MCF7 cells were transfected with 0.25 μg of the reporter plasmid pCMV β-galactosidase plus 1 μg of test plasmid in 6-well tissue culture dishes using lipofectamine as per manufacturer's instructions. The transfection was carried out in 1 ml of Opti-MEM Minimal Media (GMBCO-BRL) and after 5 hours, 1 ml of serum-containing growth media was added. Two days later, the cells were fixed with 0.5% glutaraldehyde and stained with X-gal for 4 hours. Cells were visualized by phase-contrast microscopy. At least 300 β-galactosidase-positive cells were counted for each transfection (n=3) and identified as apoptotic or nonapoptotic based on morphological alterations typical of adherent cells undergoing apoptosis including becoming rounded, condensed, and detaching from the dish (Cohen, J. J. (1993) Immunology Today 14, 126–130). […] Samples were analyzed by immunoblotting with anti-PARP monoclonal antibody C-2-10 as described previously Tewari, M., et al. (1995) Cell 81, 801–809).
(§2) To study the functional role of ICE LAP-6, MCF7 breast carcinoma cells were transiently transfected with an expression vector encoding the full-length ICE LAP-6 protein (ICE LAP-6-flag) and subsequently assessed for apoptotic features. […]

pro-Yama = molecular target: T2, pro-Yama (Homo sapiens, UniProt P42574); assay: Proteolytic activation of in vitro-translated pro-Yama by granzyme B; assay type: biochemical; conditions: purified granzyme B
T2 construct: His6; made in house; host or cells: cell-free in vitro transcription/translation, TNT kit (Promega)
T2 sequence (P42574 1-277): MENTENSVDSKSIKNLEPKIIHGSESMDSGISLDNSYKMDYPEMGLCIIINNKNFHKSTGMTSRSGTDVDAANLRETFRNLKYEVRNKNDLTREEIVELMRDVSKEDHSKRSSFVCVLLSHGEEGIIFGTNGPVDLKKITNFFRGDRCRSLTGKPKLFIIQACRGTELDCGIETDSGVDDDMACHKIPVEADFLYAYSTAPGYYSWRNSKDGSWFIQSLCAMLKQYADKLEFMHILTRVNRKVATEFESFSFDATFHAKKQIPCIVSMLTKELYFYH

pro-ICE LAP-6 = molecular target: T3, pro-ICE LAP-6 (Homo sapiens, UniProt P55211, A28V/A96G/Q221R); assay: Proteolytic activation of in vitro-translated pro-ICE LAP-6 by granzyme B; assay type: biochemical; conditions: 20 pmole granzyme B, 4 hours at 37° C., SDS-PAGE
T3 construct: made in house; host or cells: cell-free in vitro transcription/translation, TNT kit (Promega)
T3 sequence (P55211 1-416 A28V/A96G/Q221R): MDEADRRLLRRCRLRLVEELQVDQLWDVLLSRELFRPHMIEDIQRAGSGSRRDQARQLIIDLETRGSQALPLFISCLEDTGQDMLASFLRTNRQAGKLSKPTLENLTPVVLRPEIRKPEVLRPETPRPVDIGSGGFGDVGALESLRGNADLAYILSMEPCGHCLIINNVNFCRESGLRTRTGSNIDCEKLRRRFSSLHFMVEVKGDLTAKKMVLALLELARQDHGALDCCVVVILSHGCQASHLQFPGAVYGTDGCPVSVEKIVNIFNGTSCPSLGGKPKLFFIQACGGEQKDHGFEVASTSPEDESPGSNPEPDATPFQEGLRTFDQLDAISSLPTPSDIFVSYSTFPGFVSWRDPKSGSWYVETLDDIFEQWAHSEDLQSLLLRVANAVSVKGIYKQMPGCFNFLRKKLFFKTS

PARP = PARP cleavage by granzyme B-processed protease (anti-PARP immunoblot); assay type: biochemical; conditions: after granzyme B processing, anti-GraB added, 2 hours, 37° C.
Protocol: as §1, with “801–809). […]” for “801–809).”

[1] = tested on: MCF7 breast carcinoma cells; assay: Apoptosis assay in transiently transfected MCF7 cells; assay type: cell-based; conditions: transient transfection of expression vector, morphology of β-galactosidase-positive cells, two days
Protocol: as §1, §2

COC(=O)C[C@H](NC(=O)[C@H](C)NC(=O)[C@@H](NC(=O)OCc1ccccc1)C(C)C)C(=O)CF [z-VAD fmk] (Cbz-Val-Ala-Asp(OMe)-CH2F) was tested, and the “inhibition of ICE LAP-6 induced apoptosis” value (ICE LAP-6) was “inhibited”.

For “granzyme B: secreted serine protease, effector of cytotoxic T cell-mediated apoptosis”, the “activation of Yama in vitro” value (pro-Yama) was “directly activates” and the “proteolytic processing of pro-ICE LAP-6” value (pro-ICE LAP-6) was “proteolytically processed into 3 fragments”.

B1: Yama: ICE/Ced-3 family cysteine protease; p17 and p12 subunits derived from a 32 kDa proenzyme (protein)
chain: MENTENSVDSKSIKNLEPKIIHGSESMDSGISLDNSYKMDYPEMGLCIIINNKNFHKSTGMTSRSGTDVDAANLRETFRNLKYEVRNKNDLTREEIVELMRDVSKEDHSKRSSFVCVLLSHGEEGIIFGTNGPVDLKKITNFFRGDRCRSLTGKPKLFIIQACRGTELDCGIETDSGVDDDMACHKIPVEADFLYAYSTAPGYYSWRNSKDGSWFIQSLCAMLKQYADKLEFMHILTRVNRKVATEFESFSFDATFHAKKQIPCIVSMLTKELYFYHHHHHHH
With B1 the “ability to cleave PARP” value (PARP) was “active”.

B2: ICE LAP-6 mt: mutant version of ICE LAP-6 with the catalytic cysteine residue (Cys286) altered to an alanine (protein, UniProt P55211 1-416, looked up, variant C287A)
chain: MDEADRRLLRRCRLRLVEELQVDQLWDALLSRELFRPHMIEDIQRAGSGSRRDQARQLIIDLETRGSQALPLFISCLEDTGQDMLASFLRTNRQAAKLSKPTLENLTPVVLRPEIRKPEVLRPETPRPVDIGSGGFGDVGALESLRGNADLAYILSMEPCGHCLIINNVNFCRESGLRTRTGSNIDCEKLRRRFSSLHFMVEVKGDLTAKKMVLALLELAQQDHGALDCCVVVILSHGCQASHLQFPGAVYGTDGCPVSVEKIVNIFNGTSCPSLGGKPKLFFIQAAGGEQKDHGFEVASTSPEDESPGSNPEPDATPFQEGLRTFDQLDAISSLPTPSDIFVSYSTFPGFVSWRDPKSGSWYVETLDDIFEQWAHSEDLQSLLLRVANAVSVKGIYKQMPGCFNFLRKKLFFKTS
For B2, the “induction of apoptosis / cell death on overexpression” value [1] was “did not induce apoptotic changes”.

B3: ICE LAP-6: novel human member of the ICE/ced-3 family of cysteine proteases, active site QACGG, predicted 45.8 kD (protein)
chain: MDEADRRLLRRCRLRLVEELQVDQLWDVLLSRELFRPHMIEDIQRAGSGSRRDQARQLIIDLETRGSQALPLFISCLEDTGQDMLASFLRTNRQAGKLSKPTLENLTPVVLRPEIRKPEVLRPETPRPVDIGSGGFGDVGALESLRGNADLAYILSMEPCGHCLIINNVNFCRESGLRTRTGSNIDCEKLRRRFSSLHFMVEVKGDLTAKKMVLALLELARQDHGALDCCVVVILSHGCQASHLQFPGAVYGTDGCPVSVEKIVNIFNGTSCPSLGGKPKLFFIQACGGEQKDHGFEVASTSPEDESPGSNPEPDATPFQEGLRTFDQLDAISSLPTPSDIFVSYSTFPGFVSWRDPKSGSWYVETLDDIFEQWAHSEDLQSLLLRVANAVSVKGIYKQMPGCFNFLRKKLFFKTSHHHHHH
For B3, the “ability to cleave PARP” value (PARP) was “active” and the “induction of apoptosis / cell death on overexpression” value [1] was “caused cell death”.
